Key:
[1] = molecular target: integrin αIIbβ3 (human (endogenous in platelets)) (UniProt P08514); experiment: flow cytometry on cells; FITC-triflavin (2 µg/ml) added to resting washed human platelets treated with 0.5 µM TQ-6
[2] = molecular target: integrin αIIbβ3 (human (endogenous in platelets)) (UniProt P08514); experiment: flow cytometry on cells; FITC-triflavin (2 µg/ml) added to resting washed human platelets (3.6 × 10^8 cells/ml) in Tyrode's solution, 3 min; no additive (positive control)
[3] = molecular target: integrin αIIbβ3 (human (endogenous in platelets)) (UniProt P08514); experiment: flow cytometry on cells; FITC-triflavin (2 µg/ml) added to resting washed human platelets treated with 0.3 µM TQ-6

Sequence of UniProt P08514 (P08514 32-1039, chain 1 of 2): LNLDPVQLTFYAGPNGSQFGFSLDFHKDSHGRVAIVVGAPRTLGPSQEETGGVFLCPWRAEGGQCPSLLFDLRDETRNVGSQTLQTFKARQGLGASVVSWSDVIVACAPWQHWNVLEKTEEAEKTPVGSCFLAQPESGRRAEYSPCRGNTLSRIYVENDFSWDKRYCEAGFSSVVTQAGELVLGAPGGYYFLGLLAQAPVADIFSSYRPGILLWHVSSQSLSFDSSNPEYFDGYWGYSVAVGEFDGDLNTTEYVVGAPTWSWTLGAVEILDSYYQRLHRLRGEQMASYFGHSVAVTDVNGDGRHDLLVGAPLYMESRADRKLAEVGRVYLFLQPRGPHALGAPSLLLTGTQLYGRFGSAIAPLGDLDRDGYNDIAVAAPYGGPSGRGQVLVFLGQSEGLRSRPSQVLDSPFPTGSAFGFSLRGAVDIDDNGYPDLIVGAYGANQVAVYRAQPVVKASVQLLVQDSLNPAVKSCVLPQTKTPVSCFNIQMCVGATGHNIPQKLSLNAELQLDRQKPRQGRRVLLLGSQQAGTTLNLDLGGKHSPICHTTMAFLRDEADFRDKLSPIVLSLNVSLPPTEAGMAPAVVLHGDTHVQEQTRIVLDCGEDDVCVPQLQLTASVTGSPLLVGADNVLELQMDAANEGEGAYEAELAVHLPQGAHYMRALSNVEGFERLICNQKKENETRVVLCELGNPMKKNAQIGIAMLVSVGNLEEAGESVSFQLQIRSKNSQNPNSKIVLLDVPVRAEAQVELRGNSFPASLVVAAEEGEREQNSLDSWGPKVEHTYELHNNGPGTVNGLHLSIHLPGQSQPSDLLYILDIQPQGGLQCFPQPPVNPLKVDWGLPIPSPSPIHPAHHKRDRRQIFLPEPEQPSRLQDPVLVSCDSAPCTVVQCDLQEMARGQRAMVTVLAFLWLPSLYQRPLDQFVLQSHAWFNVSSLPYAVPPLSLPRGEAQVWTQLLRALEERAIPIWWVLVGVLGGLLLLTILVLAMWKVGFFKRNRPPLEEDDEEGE
Sequence of UniProt P08514 (P05106 27-788, chain 2 of 2, further chain): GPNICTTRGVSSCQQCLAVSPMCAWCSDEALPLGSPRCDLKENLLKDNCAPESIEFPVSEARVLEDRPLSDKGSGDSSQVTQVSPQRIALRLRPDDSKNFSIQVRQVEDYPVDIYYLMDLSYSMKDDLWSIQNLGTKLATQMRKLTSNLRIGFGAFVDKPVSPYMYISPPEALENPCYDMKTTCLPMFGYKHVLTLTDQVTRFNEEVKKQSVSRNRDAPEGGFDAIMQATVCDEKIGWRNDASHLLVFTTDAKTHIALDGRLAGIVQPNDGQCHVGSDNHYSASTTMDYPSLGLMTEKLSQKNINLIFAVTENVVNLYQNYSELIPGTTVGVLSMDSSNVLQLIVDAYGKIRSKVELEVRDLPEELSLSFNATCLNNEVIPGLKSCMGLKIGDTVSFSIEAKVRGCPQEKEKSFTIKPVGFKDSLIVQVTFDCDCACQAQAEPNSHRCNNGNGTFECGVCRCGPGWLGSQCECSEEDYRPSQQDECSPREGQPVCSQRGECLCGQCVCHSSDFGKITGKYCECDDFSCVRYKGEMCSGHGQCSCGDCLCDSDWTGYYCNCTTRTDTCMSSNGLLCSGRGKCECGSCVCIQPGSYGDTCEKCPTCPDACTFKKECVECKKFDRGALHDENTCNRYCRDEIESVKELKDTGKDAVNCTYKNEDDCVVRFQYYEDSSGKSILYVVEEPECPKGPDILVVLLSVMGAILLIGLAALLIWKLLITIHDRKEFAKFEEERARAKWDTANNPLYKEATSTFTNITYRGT

Question: With triflavin (natural protein) as the substance, how does the relative fluorescence intensity [1] read?
Answer: Its relative fluorescence intensity is 1220.

Question: And the relative fluorescence intensity [2]?
Answer: Its relative fluorescence intensity is 1150.

Question: And the relative fluorescence intensity [3]?
Answer: The relative fluorescence intensity was 1260.

Reference: paper PMC5573325
